Consider two molecules from patent US20150175711A1 (SINOMAB BIOSCIENCE, published 2015).

Assay [1] concerns the target anti-idiotype IgD-TM on transfected SP2/0 cells. The assay can be described thus: cell-based ELISA, SM03 10 ug/ml on transfected SP2/0 Clone BB4 (surface expression graded -), anti-human Fc-HRP.
The target is the same in assay [2]. The assay can be described thus: cell-based ELISA, SM03 10 ug/ml on transfected SP2/0 Clone BB5 (surface expression graded -), anti-human Fc-HRP. A general note: An ELISA detects its analyte on a solid surface through an enzyme-linked reagent.
Assay [3] concerns the target anti-idiotype mIgG Fab-GPI-DAF fusion protein on transfected SP2/0 cells. The assay can be described thus: cell-based ELISA, SM03 on transfected SP2/0 GPI clone 5 (surface expression graded +), anti-human Fc-HRP.
The target in assay [4] is anti-idiotype mIgG Fab-glycophorin A fusion protein on transfected SP2/0 cells. Briefly: cell-based ELISA, SM03 on transfected SP2/0 GlycoA clone 14 (surface expression graded -), anti-human Fc-HRP.
Chain of anti-idiotype mIgG Fab-glycophorin A fusion protein on transfected SP2/0 cells (heavy, as listed by the source limits assumed, chain 1 of 2): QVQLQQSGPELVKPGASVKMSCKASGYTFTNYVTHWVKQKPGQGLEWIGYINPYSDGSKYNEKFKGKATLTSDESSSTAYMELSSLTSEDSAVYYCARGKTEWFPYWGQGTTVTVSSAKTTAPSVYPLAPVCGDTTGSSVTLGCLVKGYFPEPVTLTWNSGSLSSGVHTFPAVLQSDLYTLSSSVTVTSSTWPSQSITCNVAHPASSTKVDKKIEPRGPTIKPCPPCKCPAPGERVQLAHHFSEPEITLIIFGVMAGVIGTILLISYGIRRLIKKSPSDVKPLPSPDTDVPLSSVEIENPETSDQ
Chain of anti-idiotype mIgG Fab-glycophorin A fusion protein on transfected SP2/0 cells (light, as listed by the source limits assumed, chain 2 of 2): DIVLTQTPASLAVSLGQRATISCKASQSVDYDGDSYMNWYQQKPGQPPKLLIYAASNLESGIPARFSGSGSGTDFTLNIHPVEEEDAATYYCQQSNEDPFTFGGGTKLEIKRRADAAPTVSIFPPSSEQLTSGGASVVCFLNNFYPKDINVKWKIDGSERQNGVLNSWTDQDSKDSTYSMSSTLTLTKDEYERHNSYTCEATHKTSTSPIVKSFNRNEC
For assay [5] the target is unchanged. The assay can be described thus: cell-based ELISA, SM03 on transfected SP2/0 GlycoA clone 5 (surface expression graded +++), anti-human Fc-HRP.
The target is the same in assay [6]. Briefly: cell-based ELISA, SM03 on transfected SP2/0 GlycoA clone 1 (surface expression graded -), anti-human Fc-HRP.
Assay [7] has the same target. Briefly: cell-based ELISA, SM03 on transfected SP2/0 GlycoA clone 8 (surface expression graded -), anti-human Fc-HRP.
For assay [8] the target is unchanged. The assay can be described thus: cell-based ELISA, SM03 on transfected SP2/0 GlycoA clone 10 (surface expression graded -), anti-human Fc-HRP.
Assay [9] concerns the target anti-idiotype mIgG Fab-GPI-DAF fusion protein on transfected SP2/0 cells. The assay can be described thus: cell-based ELISA, SM03 on transfected SP2/0 GPI clone 10 (surface expression graded -), anti-human Fc-HRP.
The target is the same in assay [10]. The assay can be described thus: cell-based ELISA, SM03 on transfected SP2/0 GPI clone 7 (surface expression graded -), anti-human Fc-HRP.
Assay [11] addresses anti-idiotype mIgG Fab-glycophorin A fusion protein on transfected SP2/0 cells. The assay can be described thus: cell-based ELISA, SM03 on transfected SP2/0 GlycoA clone 9 (surface expression graded -), anti-human Fc-HRP.
For assay [12], the target named is anti-idiotype IgD-TM on transfected SP2/0 cells. Briefly: cell-based ELISA, SM03 10 ug/ml on transfected SP2/0 Clone BF9 (surface expression graded -), anti-human Fc-HRP.
Chain of anti-idiotype IgD-TM on transfected SP2/0 cells (heavy, as listed by the source limits assumed, chain 1 of 2): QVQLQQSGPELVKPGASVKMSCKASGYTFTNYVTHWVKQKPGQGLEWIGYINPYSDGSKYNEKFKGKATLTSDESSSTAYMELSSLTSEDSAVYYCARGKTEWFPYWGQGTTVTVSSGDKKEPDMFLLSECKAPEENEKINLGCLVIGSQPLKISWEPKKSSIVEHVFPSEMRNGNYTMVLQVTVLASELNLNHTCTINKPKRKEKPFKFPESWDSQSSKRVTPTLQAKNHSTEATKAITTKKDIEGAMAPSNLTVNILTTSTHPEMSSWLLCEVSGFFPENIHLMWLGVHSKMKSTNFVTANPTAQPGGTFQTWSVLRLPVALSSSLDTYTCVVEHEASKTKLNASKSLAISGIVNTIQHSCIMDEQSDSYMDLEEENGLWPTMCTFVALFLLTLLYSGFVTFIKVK
Chain of anti-idiotype IgD-TM on transfected SP2/0 cells (light, as listed by the source limits assumed, chain 2 of 2): as the sequence (light, as listed by the source limits assumed, chain 2 of 2) above
The target in assay [13] is anti-idiotype mIgG Fab-GPI-DAF fusion protein on transfected SP2/0 cells. Briefly: cell-based ELISA, SM03 on transfected SP2/0 GPI clone 4 (surface expression graded +++), anti-human Fc-HRP.
Chain of anti-idiotype mIgG Fab-GPI-DAF fusion protein on transfected SP2/0 cells (heavy, as listed by the source): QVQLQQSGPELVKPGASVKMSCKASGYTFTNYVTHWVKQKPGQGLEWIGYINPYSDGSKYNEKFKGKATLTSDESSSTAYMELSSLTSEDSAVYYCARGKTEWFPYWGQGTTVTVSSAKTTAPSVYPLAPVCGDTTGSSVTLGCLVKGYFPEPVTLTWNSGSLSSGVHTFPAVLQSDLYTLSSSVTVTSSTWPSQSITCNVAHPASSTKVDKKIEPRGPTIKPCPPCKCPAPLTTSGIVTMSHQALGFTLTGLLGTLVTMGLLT
For assay [14] the target is unchanged. Briefly: cell-based ELISA, SM03 on transfected SP2/0 GPI clone 1 (surface expression graded -), anti-human Fc-HRP.
Assay [15] has the same target. Briefly: cell-based ELISA, SM03 on transfected SP2/0 GPI clone 3 (surface expression graded +++), anti-human Fc-HRP.
The target in assay [16] is anti-idiotype IgD-TM on transfected SP2/0 cells. Briefly: cell-based ELISA, SM03 10 ug/ml on transfected SP2/0 Clone AB4 (surface expression graded -), anti-human Fc-HRP.
In assay [17] the target is anti-idiotype mIgG Fab-GPI-DAF fusion protein on transfected SP2/0 cells. Briefly: cell-based ELISA, SM03 on transfected SP2/0 GPI clone 8 (surface expression graded -), anti-human Fc-HRP.
The target of assay [18] is anti-idiotype IgD-TM on transfected SP2/0 cells. The assay can be described thus: cell-based ELISA, SM03 10 ug/ml on transfected SP2/0 Clone AF9 (surface expression graded -), anti-human Fc-HRP.
Assay [19] addresses anti-idiotype mIgG Fab-GPI-DAF fusion protein on transfected SP2/0 cells. Briefly: cell-based ELISA, SM03 on transfected SP2/0 GPI clone 6 (surface expression graded -), anti-human Fc-HRP.
Assay [20] has as its target anti-idiotype mIgG Fab-glycophorin A fusion protein on transfected SP2/0 cells. Briefly: cell-based ELISA, SM03 on transfected SP2/0 GlycoA clone 15 (surface expression graded +++), anti-human Fc-HRP.
Assay [21] deals with anti-idiotype mIgG Fab-GPI-DAF fusion protein on transfected SP2/0 cells. The assay can be described thus: cell-based ELISA, SM03 on transfected SP2/0 GPI clone 9 (surface expression graded -), anti-human Fc-HRP.
For assay [22], the target named is anti-idiotype IgD-TM on transfected SP2/0 cells. Briefly: cell-based ELISA, SM03 10 ug/ml on transfected SP2/0 Clone AG5 (surface expression graded +++), anti-human Fc-HRP.
Assay [23] deals with anti-idiotype mIgG Fab-glycophorin A fusion protein on transfected SP2/0 cells. The assay can be described thus: cell-based ELISA, SM03 on transfected SP2/0 GlycoA clone 3 (surface expression graded -), anti-human Fc-HRP.
A further assay deals with T1, BSA (UniProt P02769 25-607).
T1 construct: also called control protein (BSA)
T1 sequence (P02769 25-607 limits assumed): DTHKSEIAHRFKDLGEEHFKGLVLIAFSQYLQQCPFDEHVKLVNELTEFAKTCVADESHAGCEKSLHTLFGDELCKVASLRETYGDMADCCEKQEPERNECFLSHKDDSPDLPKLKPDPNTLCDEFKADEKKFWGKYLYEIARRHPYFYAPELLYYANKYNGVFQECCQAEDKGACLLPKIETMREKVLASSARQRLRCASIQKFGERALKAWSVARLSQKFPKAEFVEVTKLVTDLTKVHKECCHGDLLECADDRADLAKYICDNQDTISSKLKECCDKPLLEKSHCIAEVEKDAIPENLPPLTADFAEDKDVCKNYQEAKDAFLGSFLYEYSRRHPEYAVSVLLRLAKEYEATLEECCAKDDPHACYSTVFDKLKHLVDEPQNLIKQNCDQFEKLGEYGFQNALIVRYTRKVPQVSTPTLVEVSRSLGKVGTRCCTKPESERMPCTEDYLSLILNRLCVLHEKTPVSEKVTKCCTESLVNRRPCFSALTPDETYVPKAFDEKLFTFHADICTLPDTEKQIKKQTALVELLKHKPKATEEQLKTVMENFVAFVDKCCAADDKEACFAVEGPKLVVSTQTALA
Briefly: phage ELISA, 1 ug BSA coated per well, anti-M13-HRP detection. As to the method:
Phages that survived panning were rescued. The binding specificities of selected phages were evaluated by Phage-ELISA using the target anti-CD22 antibodies RFB4, SM03, and framework-patched (humanized) SM06 and other control antibodies as antigens. […] After washing five times with borate washing buffer, pH8.0, horse radish peroxidase (HRP)-conjugated anti-M13 mouse antibody (Amersham) at a dilution fold of 3,000 was added.

Take SM03 chimeric anti-CD22 antibody: the OD450 nm in assay [1] came to 0.501 OD450 nm; in assay [2], 0.572 OD450 nm; in assay [3] it was 0.977 OD450 nm; in assay [4], 0.437 OD450 nm; in assay [5], 3.53 OD450 nm; in assay [6] it was 0.579 OD450 nm. Besides, the OD450 nm in assay [7] is 0.284 OD450 nm; in [8], 0.498 OD450 nm; in [9] it was 0.85 OD450 nm; in assay [10] it was 0.7 OD450 nm; in [11], 0.716 OD450 nm; in assay [12], 0.459 OD450 nm. In addition, the OD450 nm was 3.77 OD450 nm in [13]; 0.623 OD450 nm in assay [14]; 3.64 OD450 nm in assay [15]; 0.428 OD450 nm in [16]; 0.618 OD450 nm in assay [17]; 0.329 OD450 nm in assay [18]. Also, the OD450 nm in assay [19] stood at 0.736 OD450 nm; in assay [20] it was 3.38 OD450 nm; in assay [21], 0.618 OD450 nm; in assay [22] it was 3.08 OD450 nm; in assay [23], 0.406 OD450 nm.

B1: scFv Phage #3 (scFv)
scFv: QVQLVQSGPELVKPGASVKMSCKASGYTFTNYVTHWVKQKPGQGLEWIGYINPYSDGSKYNEKFKGKATLTSDESSSTAYMEVSSLTSEDSAVYYCARGKTEWFPYWGQGTPLTVSGGGGSGSGSSGGGGDIVLTQTPASLAVSLGQRATISCKASQSVDYDGDSYMNWYQQKPGQPPKLLIYAASNLESGIPARFSGSGSGTDFTLNIHPVEEEDAATYYCQQSNEDPFTFGGGTKLEI
notes: the phage coat protein fusion is not described; also called scFv isolated from phage #3
Consider B1, for which, in the assay with BSA, the binding result is reported as “no binding”.
